Source: article PMC6544384

Assays:
[1] = molecular target: T1, ZLD DBD (MBP-ZLD1117-1487) (UniProt Q9VWC6 1117-1487); assay: competition
T1 sequence: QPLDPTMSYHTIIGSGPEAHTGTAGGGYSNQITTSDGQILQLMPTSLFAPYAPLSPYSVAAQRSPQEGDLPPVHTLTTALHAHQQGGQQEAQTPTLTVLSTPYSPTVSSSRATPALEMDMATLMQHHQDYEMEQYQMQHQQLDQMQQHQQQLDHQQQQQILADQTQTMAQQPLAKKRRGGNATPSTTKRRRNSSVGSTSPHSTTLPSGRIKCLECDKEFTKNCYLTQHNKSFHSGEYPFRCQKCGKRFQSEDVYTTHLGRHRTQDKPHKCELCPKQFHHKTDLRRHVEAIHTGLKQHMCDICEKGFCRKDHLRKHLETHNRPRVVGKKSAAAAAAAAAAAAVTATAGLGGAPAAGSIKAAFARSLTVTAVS

ZLD full-length (rZLD) [2] = molecular target: T2, ZLD full-length (rZLD) (UniProt Q9VWC6 1-1596); assay: competition
ZLD full-length (rZLD) [3] = molecular target: T2, ZLD full-length (rZLD); assay: competition; remark: listed apart in the source
ZLD full-length (rZLD) [4] = molecular target: T2, ZLD full-length (rZLD); assay: EMSA

T2 sequence (Q9VWC6 whole entry): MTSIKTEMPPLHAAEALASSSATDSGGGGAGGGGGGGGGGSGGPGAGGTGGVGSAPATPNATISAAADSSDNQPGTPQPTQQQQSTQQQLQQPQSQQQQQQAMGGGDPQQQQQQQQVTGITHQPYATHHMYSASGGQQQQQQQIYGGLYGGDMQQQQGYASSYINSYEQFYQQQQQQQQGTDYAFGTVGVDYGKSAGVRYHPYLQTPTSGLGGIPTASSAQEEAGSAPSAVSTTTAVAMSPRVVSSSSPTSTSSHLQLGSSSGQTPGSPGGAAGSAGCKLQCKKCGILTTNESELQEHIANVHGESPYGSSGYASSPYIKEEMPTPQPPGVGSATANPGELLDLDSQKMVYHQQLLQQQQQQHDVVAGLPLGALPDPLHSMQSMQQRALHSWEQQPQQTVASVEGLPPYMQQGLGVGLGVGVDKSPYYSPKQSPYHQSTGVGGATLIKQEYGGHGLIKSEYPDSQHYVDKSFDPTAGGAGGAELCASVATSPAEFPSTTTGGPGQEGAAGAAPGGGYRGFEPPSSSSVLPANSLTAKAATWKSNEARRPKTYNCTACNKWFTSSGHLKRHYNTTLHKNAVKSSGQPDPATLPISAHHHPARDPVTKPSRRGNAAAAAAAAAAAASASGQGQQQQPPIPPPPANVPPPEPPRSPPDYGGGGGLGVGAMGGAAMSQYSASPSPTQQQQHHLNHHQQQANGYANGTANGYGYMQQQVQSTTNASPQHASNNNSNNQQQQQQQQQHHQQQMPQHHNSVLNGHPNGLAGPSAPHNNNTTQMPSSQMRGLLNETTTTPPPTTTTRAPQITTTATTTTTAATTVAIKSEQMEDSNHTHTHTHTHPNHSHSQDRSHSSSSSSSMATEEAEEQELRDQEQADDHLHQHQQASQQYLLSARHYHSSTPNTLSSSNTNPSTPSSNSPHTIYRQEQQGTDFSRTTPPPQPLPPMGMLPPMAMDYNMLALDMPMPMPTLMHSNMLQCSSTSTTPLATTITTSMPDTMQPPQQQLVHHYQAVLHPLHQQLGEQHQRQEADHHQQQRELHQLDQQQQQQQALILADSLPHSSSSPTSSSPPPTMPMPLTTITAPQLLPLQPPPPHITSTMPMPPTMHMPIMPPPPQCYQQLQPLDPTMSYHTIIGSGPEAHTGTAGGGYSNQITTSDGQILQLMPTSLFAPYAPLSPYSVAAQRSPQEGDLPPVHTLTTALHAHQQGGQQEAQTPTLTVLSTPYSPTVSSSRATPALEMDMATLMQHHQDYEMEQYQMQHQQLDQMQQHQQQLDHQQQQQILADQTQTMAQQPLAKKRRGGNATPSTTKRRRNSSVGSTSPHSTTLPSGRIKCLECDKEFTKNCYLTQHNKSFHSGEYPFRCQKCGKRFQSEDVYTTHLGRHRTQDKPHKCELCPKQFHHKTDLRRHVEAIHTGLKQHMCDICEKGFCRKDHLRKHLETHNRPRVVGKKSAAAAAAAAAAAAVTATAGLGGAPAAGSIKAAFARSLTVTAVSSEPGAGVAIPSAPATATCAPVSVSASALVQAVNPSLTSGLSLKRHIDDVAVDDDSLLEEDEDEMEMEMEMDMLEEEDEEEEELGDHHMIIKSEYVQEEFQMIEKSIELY

B1: scute wild-type (specific competitor) (dsDNA)
DNA 1: GAGAGAGACTACCTGTGGCTCACT
DNA 2: AGTGAGCCACAGGTAGTCTCTCTC
binding result [1]: binds | binding result (ZLD full-length (rZLD) [2]): binds

B2: scute mutant (nonspecific competitor) (dsDNA)
DNA 1: GAGAGAGAGTAGTTCTGGCTCACT
DNA 2: AGTGAGCCAGAACTACTCTCTCTC
binding result (ZLD full-length (rZLD) [3]): no binding

B3: bnk DNA (dsDNA)
DNA 1: TCCTTTTTTACTTTCATAGCTTAGGTAGTGATCTCAGGTAGTTTCCCGGAATTAAGTTAGGCTGGGTATCGCCTATCGGGAGCGGCTACCTGAACTTTTGGCACCAGCTGTCGGGGGTGAAAACTGGACCAGGTAGTCTTTAGAAGTGCACCTATATAAG
DNA 2: CTTATATAGGTGCACTTCTAAAGACTACCTGGTCCAGTTTTCACCCCCGACAGCTGGTGCCAAAAGTTCAGGTAGCCGCTCCCGATAGGCGATACCCAGCCTAACTTAATTCCGGGAAACTACCTGAGATCACTACCTAAGCTATGAAAGTAAAAAAGGA
binding result (ZLD full-length (rZLD) [4]): binds
